Assay: infectious virion yield
Conditions: glycan lost; control: WT tetherin

B1: tetherin (BST-2): N65,92A (protein)
parent chain: MASTSYDYCRVPMEDGDKRCKLLLGIGILVLLIIVILGVPLIIFTIKANSEACRDGLRAVMECRNVTHLLQQELTEAQKGFQDVEAQAATCNHTVMALMASLDAEKAQGQKKVEELEGEITTLNHKLQDASAEVERLRRENQVLSVRIADKKYYPSSQDSSSAAAPQLLIVLLGLSALLQ
other: inhibition of virion release: abolishes
